According to article PMC5449603:
Like-named read-outs stand apart in the source and are kept apart here.

T1: Sub1 (Saccharomyces cerevisiae, UniProt P54000 1-292)
T1 sequence: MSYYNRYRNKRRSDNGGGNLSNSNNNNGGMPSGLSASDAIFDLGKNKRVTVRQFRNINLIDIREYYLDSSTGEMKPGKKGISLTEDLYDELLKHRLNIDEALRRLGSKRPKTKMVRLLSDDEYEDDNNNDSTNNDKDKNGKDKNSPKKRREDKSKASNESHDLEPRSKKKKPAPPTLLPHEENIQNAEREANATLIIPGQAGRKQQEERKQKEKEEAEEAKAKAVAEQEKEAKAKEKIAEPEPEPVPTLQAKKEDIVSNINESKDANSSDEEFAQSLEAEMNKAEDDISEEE


Legend:
Test in all cases: fluorescence anisotropy
PC4 (hSub1, p15) = PC4 (hSub1, p15) (human, UniProt P53999 1-127)
Sub1 [1] = molecular target: T1, Sub1
Sub1 [2] = molecular target: T1, Sub1; remark: listed apart in the source

Row | Binder | Kd (PC4 (hSub1, p15)) | Kd (Sub1 [1]) | binding result (Sub1 [2]) | Kd (Sub1 [2])
1 | GGTGTGTGGAGCGTGCGTTT (ssDNA) [ssDNA (FAM)] | 9 ± 0.9 nM | 21.2 ± 1.1 nM | – | –
2 | Duplex (FAM) (dsDNA) DNA 1: GATACTATTGGGTGGGTAGGGTGGGTTTACATGT DNA 2: ACATGTAAACCCACCCTACCCACCCAATAGTATC | 38.7 ± 8 nM | – | no binding | –
3 | GAGCTGGGGTGAGCTGGGCTGAGCTGGGGTGAGCTGGGCTGAGCT (structured_DNA) [SµG (FAM)] | – | – | – | 8.7 ± 1.7 nM
